Experimental data as given in publication PMC7923638 (BMC Biotechnology, 2021).

B1: CsAlaDC (Camellia sinensis var. sinensis) (protein)
chain: MEGTVSVLSNVSKVELLSKCFDLITIPVEPLPPVVASNGVAGGETKNMKERDIVLGKNVHTTSLTITEPDVDDDSTSDMEAFMAGVLVRYRKTLIEKTKYHLGYPFNLDLDYGPLAELQHFAINNLGDPFIESNYGVHSRQFEVGVLDWFARLWEIEQKEYWGYITNGGTEGNLHGILIGREVFPDGIFYTSRESHYSIFKAARMYRMECVKVGTLINGEIDCADFKAKLLSNKDKPAIINLNIGTTVKGAVDDIDLVIQTLEECGFSHDRFYIHCDGALFGFMMPFLNRGPKITFKKPIGSVSVSGHKFMGCPTPCGVQITRLEHINALSRNVEYLASRDATITGSRNGHSPIILWYALNRKGFKGFQKEVQKCLRNAHYLKDRLREAGISAMLNELSSTVVFERPLDEEFVRRWQLACEGNMAHVIVMPNVTIEKLDEFLNELVQKRANWYNDGKAGPPCLAPDIGSENCDCDLHK

Key:
[1] = target: T1, CsSDC (Camellia sinensis, UniProt A0A4S4DBB3); test: decarboxylase activity with and without […] PLP, UPLC; assay type: biochemical; conditions: 20 mM serine, 40 °C, pH 7.0
T1 construct: gene SerDC; about 75 kDa on SDS-PAGE
T1 sequence (A0A4S4DBB3 entry or part of it): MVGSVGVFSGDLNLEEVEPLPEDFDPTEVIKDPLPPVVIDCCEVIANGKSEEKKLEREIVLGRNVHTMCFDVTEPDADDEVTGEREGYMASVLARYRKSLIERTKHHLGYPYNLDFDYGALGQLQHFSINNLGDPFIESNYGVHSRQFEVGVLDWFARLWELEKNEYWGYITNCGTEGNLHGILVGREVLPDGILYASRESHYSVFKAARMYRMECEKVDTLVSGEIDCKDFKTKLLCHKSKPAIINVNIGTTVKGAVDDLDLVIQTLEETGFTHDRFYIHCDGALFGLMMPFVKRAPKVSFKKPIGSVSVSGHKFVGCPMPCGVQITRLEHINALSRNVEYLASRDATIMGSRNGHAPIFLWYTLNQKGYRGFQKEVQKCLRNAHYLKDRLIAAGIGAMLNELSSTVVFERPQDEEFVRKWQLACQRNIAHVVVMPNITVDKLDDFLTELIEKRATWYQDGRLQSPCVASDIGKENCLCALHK

[2] = substrate: C[C@H](N)C(=O)O; test: purified protein; conditions: 45 °C, pH 8.0, 100 mM potassium phosphate, 0.1 mM PLP, 5 mM DTT, 1 mM K2EDTA, 10% glycerol, 1-100 mM substrate

Molecule | decarboxylase activity with and without 0.1 mM PLP, UPLC [1] | Km [2] [mM] | Vmax [2] [µmol/min/mg]
Cc1ncc(COP(=O)(O)O)c(C=O)c1O [pyridoxal-5′-phosphate] | activities of CsAlaDC and CsSDC are significantly dependent on the presence of PLP | – | –
B1 | – | 33.25 | 3470
